Holding throughout (assay): ELISA
(In general: An ELISA detects its analyte on a solid surface through an enzyme-linked reagent.)

The target of test [1] is T1, hPD-L1-hIGg1Fc (SinoBiological) (human, UniProt Q9NZQ7 19-238).
Test [2] concerns the target T1, hPD-L1-hIGg1Fc (SinoBiological). The source holds these as a separate data set.
For test [3] the target is unchanged. The source holds these as a separate data set.
The target is the same in test [4]. This is another data set of the same source.

Like-named read-outs stand apart in the source and are kept apart here.

T1 sequence (Q9NZQ7 19-238): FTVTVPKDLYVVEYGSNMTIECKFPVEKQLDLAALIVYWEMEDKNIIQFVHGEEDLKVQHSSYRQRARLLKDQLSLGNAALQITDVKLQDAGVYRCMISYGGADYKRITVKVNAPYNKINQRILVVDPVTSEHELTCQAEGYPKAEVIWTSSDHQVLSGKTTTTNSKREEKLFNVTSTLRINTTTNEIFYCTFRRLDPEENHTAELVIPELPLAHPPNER

B1: PD-1m-aGPC-3L (bispecific antibody)
heavy: QVQLVQSGAEVKKPGASVKVSCKASGYTFTDYEMHWVRQAPGQGLEWMGALDPKTGDTAYSQKFKGRVTLTADKSTSTAYMELSSLTSEDTAVYYCTRFYSYTYWGQGTLVTVSSASTKGPSVFPLAPSSKSTSGGTAALGCLVKDYFPEPVTVSWNSGALTSGVHTFPAVLQSSGLYSLSSVVTVPSSSLGTQTYICNVNHKPSNTKVDKKVEPKSCDKTHTCPPCPAPPVAGPSVFLFPPKPKDTLMISRTPEVTCVVVDVSHEDPEVKFNWYVDGVEVHNAKTKPREEQYNSTYRVVSVLTVLHQDWLNGKEYKCKVSNKGLPSSIEKTISKAKGQPREPQVYTLPPSRDELTKNQVSLTCLVKGFYPSDIAVEWESNGQPENNYKTTPPVLDSDGSFFLYSKLTVDKSRWQQGNVFSCSVMHEALHNHYTQKSLSLSPGK
light: LDSPDRPWNPPTFSPALLVVTEGDNATFTCSFSNTSESFVLNWYRMSPSNQTDKLAAFPEDRSQPGQDSRFRVTQLPNGRDFHMSVVRARRNDSGTYLCGAISLAPKVQIKESLRAELRVTERRAEVPTAHPSPSPRPAGQFQGGGGSGGGGSGGGGSGDVVMTQSPLSLPVTPGEPASISCRSSQSLVHSNRNTYLHWYLQKPGQSPQLLIYKVSNRFSGVPDRFSGSGSGTDFTLKISRVEAEDVGVYYCSQNTHVPPTFGQGTKLEIKRTVAAPSVFIFPPSDEQLKSGTASVVCLLNNFYPREAKVQWKVDNALQSGNSQESVTEQDSKDSTYSLSSTLTLSKADYEKHKVYACEVTHQGLSSPVTKSFNRGEC
For B1, the EC50 – broadly, the midpoint of the concentration-response curve – in test [1] amounted to 0.0258 nM.

B2: aPD-L1 (antibody, V domains shown)
VH: EVQLLESGGGLVQPGGSLSLSCAASGFSFSSGYDMCWVRQAPGKGLEWIACIAAGSAGITYDANWAKGRFTISRDNSKNTLYLQMNSLRAEDTAVYYCARSAFSFDYAMDLWGQGTLVTVSS
VL: DIQMTQSPSTLSASVGDRVTITCQASQSISSHLNWYQQKPGKAPKLLIYKASTLASGVPSRFSGSGSGTEFTLTISSLQPDDFATYYCQQGYSWGNVDNVFGGGTKVTVL
As to B2, the EC50 in test [2] and in test [3] was 0.068 nM in each case.

B3: PD-1m-aEGFRL (bispecific antibody)
heavy: QVQLQESGPGLVKPSETLSLTCTVSGGSVSSGDYYWTWIRQSPGKGLEWIGHIYYSGNTNYNPSLKSRLTISIDTSKTQFSLKLSSVTAADTAIYYCVRDRVTGAFDIWGQGTMVTVSSASTKGPSVFPLAPSSKSTSGGTAALGCLVKDYFPEPVTVSWNSGALTSGVHTFPAVLQSSGLYSLSSVVTVPSSSLGTQTYICNVNHKPSNTKVDKKVEPKSCDKTHTCPPCPAPPVAGPSVFLFPPKPKDTLMISRTPEVTCVVVDVSHEDPEVKFNWYVDGVEVHNAKTKPREEQYNSTYRVVSVLTVLHQDWLNGKEYKCKVSNKGLPSSIEKTISKAKGQPREPQVYTLPPSRDELTKNQVSLTCLVKGFYPSDIAVEWESNGQPENNYKTTPPVLDSDGSFFLYSKLTVDKSRWQQGNVFSCSVMHEALHNHYTQKSLSLSPGK
light: not shown
In turn, B3 came in with an EC50 in test [4] of 0.0394 nM.

B4: PD-1-aEGFRL (bispecific antibody)
heavy: QVQLQESGPGLVKPSETLSLTCTVSGGSVSSGDYYWTWIRQSPGKGLEWIGHIYYSGNTNYNPSLKSRLTISIDTSKTQFSLKLSSVTAADTAIYYCVRDRVTGAFDIWGQGTMVTVSSASTKGPSVFPLAPSSKSTSGGTAALGCLVKDYFPEPVTVSWNSGALTSGVHTFPAVLQSSGLYSLSSVVTVPSSSLGTQTYICNVNHKPSNTKVDKKVEPKSCDKTHTCPPCPAPPVAGPSVFLFPPKPKDTLMISRTPEVTCVVVDVSHEDPEVKFNWYVDGVEVHNAKTKPREEQYNSTYRVVSVLTVLHQDWLNGKEYKCKVSNKGLPSSIEKTISKAKGQPREPQVYTLPPSRDELTKNQVSLTCLVKGFYPSDIAVEWESNGQPENNYKTTPPVLDSDGSFFLYSKLTVDKSRWQQGNVFSCSVMHEALHNHYTQKSLSLSPGK
light: not shown
With B4, the EC50 in test [4] amounted to 1.54 nM.

(Values after patent US20230287081A1 (published 2023).)
